Key:
[1] = molecular target: T1, Full-length human NT5E (recombinant, in-house) (human, UniProt P21589 27-549); assay: SPR, His-captured NT5E, 1 mM ATP
T1 construct: also called hNT5E; hNT5EWT
T1 sequence: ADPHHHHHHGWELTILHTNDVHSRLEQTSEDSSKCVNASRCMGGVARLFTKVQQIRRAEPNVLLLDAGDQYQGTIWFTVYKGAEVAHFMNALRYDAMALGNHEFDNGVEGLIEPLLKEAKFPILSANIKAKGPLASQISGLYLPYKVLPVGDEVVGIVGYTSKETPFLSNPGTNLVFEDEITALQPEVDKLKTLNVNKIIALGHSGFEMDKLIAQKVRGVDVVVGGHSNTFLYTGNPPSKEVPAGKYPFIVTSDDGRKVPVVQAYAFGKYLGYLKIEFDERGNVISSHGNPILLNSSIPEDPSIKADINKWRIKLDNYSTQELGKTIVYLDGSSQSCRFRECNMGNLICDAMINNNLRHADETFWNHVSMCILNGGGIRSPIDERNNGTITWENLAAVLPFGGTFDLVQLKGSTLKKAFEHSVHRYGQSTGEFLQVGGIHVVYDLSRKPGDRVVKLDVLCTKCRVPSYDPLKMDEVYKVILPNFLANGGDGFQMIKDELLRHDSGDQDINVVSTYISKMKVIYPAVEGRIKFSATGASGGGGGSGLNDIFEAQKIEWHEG
Experimental: (§1) All SPR experiments were performed at 25° C. using MASS-1 (Bruker) instrument. hNT5E, mNT5E and cNT5E were immobilized onto a nitrilotriacetic acid (NTA) sensor chip via His-tag. For kinetic experiments, after ligand immobilization, 2-fold serial dilutions of the Fabs were injected. After double-reference subtraction data were analyzed with BiaEvaluation (GE Healthcare) or Sierra Analyser (Bruker) software. The experiments were carried in buffers in presence and absence of 1 mM ATP to compare the kinetic parameters of the Fabs binding to closed and open form of NT5E.

[2] = molecular target: T2, Full-length cynomolgus NT5E (recombinant) (cynomolgus, UniProt P21589 27-549 (human entry)); assay: SPR, His-captured NT5E, 1 mM ATP
T2 construct: also called cNT5E; cyno NT5E
T2 chain: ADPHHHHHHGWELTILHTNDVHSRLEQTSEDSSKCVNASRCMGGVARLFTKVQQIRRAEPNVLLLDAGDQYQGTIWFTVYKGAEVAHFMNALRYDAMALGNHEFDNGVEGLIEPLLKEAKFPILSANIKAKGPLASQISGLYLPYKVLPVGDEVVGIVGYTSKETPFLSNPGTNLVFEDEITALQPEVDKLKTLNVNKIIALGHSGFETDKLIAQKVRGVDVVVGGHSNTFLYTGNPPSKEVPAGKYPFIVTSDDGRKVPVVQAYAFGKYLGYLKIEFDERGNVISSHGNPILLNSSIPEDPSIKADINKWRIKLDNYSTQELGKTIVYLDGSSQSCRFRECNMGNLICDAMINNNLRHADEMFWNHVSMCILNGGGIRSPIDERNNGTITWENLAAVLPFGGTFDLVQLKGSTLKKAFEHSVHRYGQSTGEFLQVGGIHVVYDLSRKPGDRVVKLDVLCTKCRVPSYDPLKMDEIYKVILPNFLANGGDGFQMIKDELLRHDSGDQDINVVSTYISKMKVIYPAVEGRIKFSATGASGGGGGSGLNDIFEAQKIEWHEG
Experimental: as §1

[3] = molecular target: T3, Full-length murine NT5E (recombinant) (murine, UniProt Q61503 29-552); assay: ELISA, biotinylated NT5E on neutravidin plate, 1 mM ATP; ELISA, recombinant mNT5E, with ATP (EC50ATP)
T3 construct: also called mNT5E
T3 sequence: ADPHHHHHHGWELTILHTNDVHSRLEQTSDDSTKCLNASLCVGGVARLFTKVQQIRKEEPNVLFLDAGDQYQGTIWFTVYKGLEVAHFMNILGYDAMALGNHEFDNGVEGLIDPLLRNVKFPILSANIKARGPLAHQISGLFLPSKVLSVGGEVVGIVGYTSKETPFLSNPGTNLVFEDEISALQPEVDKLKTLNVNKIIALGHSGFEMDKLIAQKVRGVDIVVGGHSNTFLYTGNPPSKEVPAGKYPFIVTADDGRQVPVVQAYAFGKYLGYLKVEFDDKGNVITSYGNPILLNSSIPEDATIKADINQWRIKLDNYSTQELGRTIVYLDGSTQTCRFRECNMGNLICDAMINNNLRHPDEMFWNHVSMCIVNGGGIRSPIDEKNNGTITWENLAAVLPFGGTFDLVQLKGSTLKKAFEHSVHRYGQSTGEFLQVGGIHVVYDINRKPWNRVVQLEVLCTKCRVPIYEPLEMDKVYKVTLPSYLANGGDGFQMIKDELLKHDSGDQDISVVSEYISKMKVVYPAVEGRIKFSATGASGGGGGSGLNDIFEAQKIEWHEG
Experimental: (B) Protein ELISA: Protein-based multipoint ELISA was performed to estimate the affinity of the generated Fabs and IgGs to NT5E. The binding of the Fabs and IgGs to the closed form of NT5E were determined in ELISA buffer (HBST) supplemented with 10 μM zinc chloride and 1 mM ATP while the binding of the same to open form of NT5E were determined in ELISA buffer (HBST) without any cofactors. A fixed concentration of the immobilized target (50 nM) on ELISA plate was incubated with 3-fold serial dilutions of the purified Fabs and IgGs starting from 3 μM and 1 μM respectively for 15 min. The plates were washed and were subsequently incubated with a secondary HRP-conjugated anti-protein L monoclonal antibody (#32420, ThermoFisher, 1:6000 dilution). As with phage ELISA, the plates were again washed, developed with TMB substrate and quenched with 1.0 M HCl, and absorbance (Abs450) was determined. To determine the affinity (EC50), the data were fitted with a non-linear, 4-parameter logistic curve in OriginLab.

B1: 1789 Fab (Fab, V domains shown)
VH: EVQLVESGGGLVQPGGSLRLSCAASGFNVSYSSIHWVRQAPGKGLEWVASISSSSGYTYYADSVKGRFTISADTSKNTAYLQMNSLRAEDTAVYYCARNYWGWYPFYYFAFDYWGQGTLVTV
VL: DIQMTQSPSSLSASVGDRVTITCRASQSVSSAVAWYQQKPGKAPKLLIYSASSLYSGVPSRFSGSRSGTDFTLTISSLQPEDFATYYCQQGWDYPITFGQGTKVEIKR
Binder B1 has a Kd [1] of 42 nM, a koff [1] of 0.0073 s⁻¹ and a kon [1] of 170000 M⁻¹ s⁻¹. The Kd [2] was 32 nM, the koff [2] was 0.0051 s⁻¹ and the kon [2] was 160000 M⁻¹ s⁻¹. The EC50 [3] was 132 nM.

Source: patent US20240199757A1 (UNIVERSITY OF CHICAGO, published 2024)
